US20170306032A1 (RESEARCH CORPORATION TECHNOLOGIES, published 2017)
Numbering of substitutions follows the chain as printed.

B1: E10 modified CH2 domain (first generation loop 2 clone, parental clone of the affinity maturation) (designed binder)
chain: GPSVFLFPPKPKDTLMISRTPEVTCVVVDVSHEDPEVKFNWYVDGAEVHHAQTKPRQYDPLYGYRVVSVLTVLHQDWLNGKEYKCKVSNKALPAPIEKTISKAK
notes: purified protein elsewhere; also called E10par
B2: B11 modified CH2 domain (affinity matured, loop 1 YRADYL, loop 2 of E10) (designed binder)
chain: B1 chain with V30Y, S31R, H32A, E33D, D34Y, P35L
B3: D2 modified CH2 domain (affinity matured, loop 1 YEAAAL, loop 2 of E10) (designed binder)
chain: B1 chain with V30Y, S31E, H32A, E33A, D34A, P35L
notes: Expressed in Shuffle cells, purified on HisTrap
B4: G7 modified CH2 domain (affinity matured, loop 1 PHLGVD, loop 2 of E10) (designed binder)
chain: B1 chain with V30P, S31H, H32L, E33G, D34V, P35D
B5: H3 (first generation loop 2 clone, loop 2 AYYALGG) (designed binder)
chain: B1 chain with Q57A, D59Y, P60A, Y62G
notes: From library #15 (Glu293 to Thr299 randomised); A9 is kept apart as m12; also called H3par
B6: H6 modified CH2 domain (first generation loop 2 clone) (designed binder)
chain: B1 chain with Q57R, Y58V, Y62G
notes: purified on a Nickel column from E. coli periplasm for protein ELISA and SPR
B7: wild type CH2D (wild type human IgG CH2 domain) (other)
chain: APELLGGPSVFLFPPKPKDTLMISRTPEVTCVVVDVSHEDPEVKFNWYVDGVEVHNAKTKPREEQYNSTYRVVSVLTVLHQDWLNGKEYKCKVSNKALPAPIEKTISKAK
notes: also called CH2wt
B8: B11 modified CH2 domain SEQ ID NO: 89 (C terminal cysteine and N terminal hinge sequence) conjugated with Biotin-dPEG11 (designed binder)
chain: GSCDKTHTAPEKKGGPSVFLFPPKPKDTLMISRTPEVTCVVVDYRADYLDVKFNWYVNGAEVHHAQTKPRQYDPLYGYRVVSVLTVTHQDWLNGKEYTCKVSNKALPAPIQKTISKDC
modifications: conjugated with Biotin-dPEG11-MAL after reduction with DTT; the residue that carries it is not stated (chain has a C terminal cysteine)
notes: also called B11-dPEG-biotin
B9: B11 modified CH2 domain SEQ ID NO: 90 (N terminal hinge sequence) conjugated with Biotin-dPEG11 (designed binder)
chain: B8 chain with C118K
modifications: conjugated with Biotin-dPEG11-MAL after reduction with DTT; the residue that carries it is not stated
notes: also called B11-dPEG-biotin
B10: B11 modified CH2 domain SEQ ID NO: 91 (C terminal cysteine) conjugated with Biotin-dPEG11 (designed binder)
chain: GPSVFLFPPKPKDTLMISRTPEVTCVVVDYRADYLDVKFNWYVNGAEVHHAQTKPRQYDPLYGYRVVSVLTVTHQDWLNGKEYTCKVSNKALPAPIQKTISKDC
modifications: conjugated with Biotin-dPEG11-MAL after reduction with DTT; the residue that carries it is not stated (chain has a C terminal cysteine)
notes: also called B11-dPEG-biotin

Tests used:
[1] = biological target: T1, mouse EphA2 recombinant protein (Fc chimera, R&D Systems, cat#639-A2) (mouse, UniProt Q03145 26-535); experiment: SPR, Biacore 3000, on mEphA2
T1 construct: Biotinylated for the Octet assay; also called mEphA2-Fc; mEphA2; Fc part of the bought chimera not given

FcRn = biological target: T2, FcRn; experiment: SPR
T2 construct: also called neonatal receptor FcRn

[2] = biological target: BSA (bovine serum albumin, control) (bovine, UniProt P02769 25-607); experiment: phage ELISA on coated BSA, anti-M13-HRP
[3] = biological target: T3, human EphA2 receptor expressed on cells (HEK293-EphA2, CHO-EphA2, PC-3) (human, UniProt P29317 24-976); experiment: phage ELISA on fixed HEK293 cells with doxycycline-induced EphA2 (NO DOX, 100, 50, 25 ng/ml), anti-M13-HRP
T3 construct: whole, on cells; also called EphA2 transfected cells; HEK293-EphA2 overexpressing cells

[4] = biological target: T4, human EphA2 recombinant protein (purified human EphA2 extracellular domain) (human, UniProt P29317 24-537); experiment: phage ELISA on coated hEphA2, anti-M13-HRP, developed 30 min
T4 construct: extracellular domain; Biotinylated for the Octet assay; also called hEphA2; huEphA2

[5] = biological target: T4, human EphA2 recombinant protein …; experiment: SPR, Biacore 3000, immobilized huEphA2 extracellular domain, KDkinetic
[6] = biological target: T4, human EphA2 recombinant protein …; experiment: SPR, Biacore 3000, immobilized huEphA2 extracellular domain
[7] = biological target: T3, human EphA2 receptor expressed on cells …; experiment: FACS on CHO cells transfected with human EphA2
[8] = biological target: T1, mouse EphA2 recombinant protein (Fc …); experiment: BLI, Octet Red, biotinylated mEphA2 on streptavidin sensors, steady state fit (column head prints EC50, title KD)
[9] = biological target: T4, human EphA2 recombinant protein …; experiment: BLI, Octet Red, biotinylated huEphA2 on streptavidin sensors, steady state fit (column head prints EC50, title KD)
[10] = biological target: T1, mouse EphA2 recombinant protein (Fc …); experiment: end-point titration ELISA on mEphA2
[11] = biological target: T4, human EphA2 recombinant protein …; experiment: SPR, Biacore 3000, immobilized huEphA2 extracellular domain, KDequilibrium
[12] = biological target: T4, human EphA2 recombinant protein …; experiment: end-point titration ELISA on huEphA2
[13] = biological target: T3, human EphA2 receptor expressed on cells …; experiment: FACS titration on human EphA2 transfected CHO cells, anti-His-FITC detection [upper panel]
[14] = biological target: T3, human EphA2 receptor expressed on cells …; experiment: immunofluorescence on PC-3 cells expressing endogenous EphA2 receptor, 4° C. for 30 minutes

T1 sequence (Q03145 26-535, change not shown): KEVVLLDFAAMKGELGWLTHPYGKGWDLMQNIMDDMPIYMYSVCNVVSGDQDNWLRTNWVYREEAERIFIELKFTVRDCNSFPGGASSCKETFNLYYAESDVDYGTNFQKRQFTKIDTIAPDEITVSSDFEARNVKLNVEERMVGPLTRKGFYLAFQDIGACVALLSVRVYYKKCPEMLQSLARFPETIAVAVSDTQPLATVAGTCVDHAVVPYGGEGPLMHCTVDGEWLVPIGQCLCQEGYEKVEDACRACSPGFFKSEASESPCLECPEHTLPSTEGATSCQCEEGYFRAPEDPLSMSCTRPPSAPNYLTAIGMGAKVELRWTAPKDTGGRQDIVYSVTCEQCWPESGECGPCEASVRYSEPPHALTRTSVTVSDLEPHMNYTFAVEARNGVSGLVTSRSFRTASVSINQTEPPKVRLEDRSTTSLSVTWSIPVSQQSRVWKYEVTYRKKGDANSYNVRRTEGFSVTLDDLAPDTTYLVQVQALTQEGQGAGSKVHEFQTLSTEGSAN
T3 sequence (P29317 24-976): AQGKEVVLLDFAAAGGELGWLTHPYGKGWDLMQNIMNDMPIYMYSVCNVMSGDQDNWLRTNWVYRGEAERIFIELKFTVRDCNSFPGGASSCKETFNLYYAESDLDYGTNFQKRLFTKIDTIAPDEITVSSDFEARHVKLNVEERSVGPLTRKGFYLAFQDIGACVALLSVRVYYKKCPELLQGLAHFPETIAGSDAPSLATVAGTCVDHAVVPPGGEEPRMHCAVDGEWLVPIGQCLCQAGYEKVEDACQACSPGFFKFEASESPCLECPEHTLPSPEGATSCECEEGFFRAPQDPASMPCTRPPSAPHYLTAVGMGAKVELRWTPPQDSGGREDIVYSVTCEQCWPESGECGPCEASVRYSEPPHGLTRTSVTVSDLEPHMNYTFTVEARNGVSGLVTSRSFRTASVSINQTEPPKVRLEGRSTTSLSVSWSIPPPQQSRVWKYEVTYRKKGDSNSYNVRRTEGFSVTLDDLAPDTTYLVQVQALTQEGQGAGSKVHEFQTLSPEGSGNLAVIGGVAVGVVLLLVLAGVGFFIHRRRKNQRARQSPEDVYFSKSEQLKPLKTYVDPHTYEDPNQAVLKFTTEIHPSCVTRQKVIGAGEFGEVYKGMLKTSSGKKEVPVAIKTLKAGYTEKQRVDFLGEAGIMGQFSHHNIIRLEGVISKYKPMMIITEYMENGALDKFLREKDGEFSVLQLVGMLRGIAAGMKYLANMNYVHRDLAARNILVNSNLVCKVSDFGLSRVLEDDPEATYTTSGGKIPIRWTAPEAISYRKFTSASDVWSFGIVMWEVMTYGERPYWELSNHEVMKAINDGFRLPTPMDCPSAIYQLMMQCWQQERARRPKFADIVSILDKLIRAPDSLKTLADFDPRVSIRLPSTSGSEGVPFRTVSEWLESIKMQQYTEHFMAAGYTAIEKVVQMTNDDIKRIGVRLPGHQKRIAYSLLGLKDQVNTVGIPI
T4 sequence (P29317 24-537): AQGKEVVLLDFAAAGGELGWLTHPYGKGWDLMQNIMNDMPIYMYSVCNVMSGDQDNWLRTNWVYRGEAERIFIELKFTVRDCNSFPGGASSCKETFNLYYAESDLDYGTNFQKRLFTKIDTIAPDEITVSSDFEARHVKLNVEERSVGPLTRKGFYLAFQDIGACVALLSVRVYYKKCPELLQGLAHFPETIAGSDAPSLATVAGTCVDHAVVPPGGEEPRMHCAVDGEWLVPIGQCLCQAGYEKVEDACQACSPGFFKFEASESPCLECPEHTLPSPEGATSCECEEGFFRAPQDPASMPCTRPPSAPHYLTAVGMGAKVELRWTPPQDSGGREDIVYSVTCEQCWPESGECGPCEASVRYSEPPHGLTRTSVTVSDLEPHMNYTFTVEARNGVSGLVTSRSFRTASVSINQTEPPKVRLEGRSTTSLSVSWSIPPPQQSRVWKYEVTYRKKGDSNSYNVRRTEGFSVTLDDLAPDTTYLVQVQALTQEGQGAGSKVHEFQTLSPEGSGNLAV
T2 sequence (P55899 24-297, chain 1 of 2): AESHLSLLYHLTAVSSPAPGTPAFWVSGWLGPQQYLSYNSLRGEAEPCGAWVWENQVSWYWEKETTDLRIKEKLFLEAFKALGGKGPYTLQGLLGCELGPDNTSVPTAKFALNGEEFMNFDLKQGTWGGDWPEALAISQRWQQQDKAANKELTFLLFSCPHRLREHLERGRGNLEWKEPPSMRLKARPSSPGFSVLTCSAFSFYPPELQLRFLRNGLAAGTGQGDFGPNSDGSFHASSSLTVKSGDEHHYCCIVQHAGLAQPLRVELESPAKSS
T2 sequence (P61769 21-119, chain 2 of 2, further chain): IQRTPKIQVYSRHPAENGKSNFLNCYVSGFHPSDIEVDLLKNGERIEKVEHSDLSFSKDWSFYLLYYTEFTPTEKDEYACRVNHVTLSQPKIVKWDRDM
Sequence of BSA (bovine serum albumin, control) (P02769 25-607 limits assumed): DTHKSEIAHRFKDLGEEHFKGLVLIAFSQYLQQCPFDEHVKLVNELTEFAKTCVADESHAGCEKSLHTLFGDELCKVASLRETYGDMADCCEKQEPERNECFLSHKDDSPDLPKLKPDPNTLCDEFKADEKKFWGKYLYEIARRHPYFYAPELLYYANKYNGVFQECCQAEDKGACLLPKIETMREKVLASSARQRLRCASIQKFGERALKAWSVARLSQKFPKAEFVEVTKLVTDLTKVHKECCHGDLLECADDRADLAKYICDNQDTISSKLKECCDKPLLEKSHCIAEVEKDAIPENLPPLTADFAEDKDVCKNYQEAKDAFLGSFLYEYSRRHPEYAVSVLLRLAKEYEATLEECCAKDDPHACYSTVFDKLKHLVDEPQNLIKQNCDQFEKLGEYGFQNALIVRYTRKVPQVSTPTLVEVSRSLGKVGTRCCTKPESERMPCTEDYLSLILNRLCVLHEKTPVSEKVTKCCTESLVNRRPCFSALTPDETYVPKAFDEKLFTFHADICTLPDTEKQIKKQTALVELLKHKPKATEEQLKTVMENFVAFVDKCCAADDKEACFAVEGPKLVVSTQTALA

Binder | Kd [1] | koff [1] | kon [1] | EC50 [7] | Kd [8] | Kd [9] | EC50 [10] | EC50 [12] | binding result [14] | also measured
B1 | 97 nM | 0.008 s⁻¹ | 79100 M⁻¹ s⁻¹ |  |  |  |  |  |  | Kd (FcRn): 3260 nM; binding result [2]: no binding; binding result [3]: binds; binding result [4]: binds
B2 |  |  |  | 403 nM | 5.5 nM | 3.1 nM | 9.89 nM | 4.43 nM |  | Kd [5]: 13 nM; koff [6]: 0.0158 s⁻¹; kon [6]: 1.21e+06 M⁻¹ s⁻¹; Kd [11]: 13.9 nM
B3 |  |  |  | 1310 nM | 18 nM | 20 nM | 1.97 nM | 2.55 nM |  | 
B4 |  |  |  | 333 nM | 21 nM | 18 nM | 3.18 nM | 8.06 nM |  | Kd [5]: 21 nM; koff [6]: 0.0375 s⁻¹; kon [6]: 1.8e+06 M⁻¹ s⁻¹; Kd [11]: 22 nM
B5 | 383 nM | 0.014 s⁻¹ | 36400 M⁻¹ s⁻¹ |  |  |  |  |  |  | 
B6 | 873 nM | 0.008 s⁻¹ | 9610 M⁻¹ s⁻¹ |  |  |  |  |  |  | binding result [2]: no binding; binding result [3]: binds; binding result [4]: binds
B7 |  |  |  |  |  |  |  |  |  | Kd (FcRn): 1660 nM; binding result [13]: no binding (tested: about 3.6 µM)
B8 |  |  |  |  |  |  |  |  | binds | 
B9 |  |  |  |  |  |  |  |  | binds | 
B10 |  |  |  |  |  |  |  |  | binds | 
